Data published in doi:10.1101/2024.03.07.583919 (bioRxiv, 2024).
Positions count from the first letter of the chain named. Names and notes keep the numbering of the source.

B1: wild-type human GCAP1-E6S (Guanylate Cyclase Activating Protein 1), myristoylated (natural protein)
chain: MGNVMSGKSVEELSSTECHQWYKKFMTECPSGQLTLYEFRQFFGLKNLSPSASQYVEQMFETFDFNKDGYIDFMEYVAALSLVLKGKVEQKLRWYFKLYDVDGNGCIDRDELLTIIQAIRAINPCSDTTMTAEEFTDTVFSKIDVNGDGELSLEEFIEGVQKDQMLLDTLTRSLDLTRIVRRLQNGEQDEEGADEAAEAAG
modifications: myristoylated at the N-terminal (by S. cerevisiae N-myristoyltransferase)
B2: E111V-GCAP1 (human GCAP1-E6S with the cone-rod dystrophy substitution E111V), myristoylated (natural protein)
chain: B1 chain with E111V
modifications: myristoylated at the N-terminal (by S. cerevisiae N-myristoyltransferase)

Target: the molecule itself
Experiment: SEC

| Protein | binding result |
| --- | --- |
| B1 | binds |
| B2 | binds |
